B1: HDV Ribozyme (parent)
chain: GGCCGGCAUGGUCCCAGCCUCCUCGCUGGCGCCGGCUGGGCAACAUUCCGAGGGGACCGUCCCCUCGGUAAUGGCGAAUGGGACCCA

Variants of: B1
Assay: self-cleavage, relative activity (ratio to wild type); higher = more cleavage; co-transcriptional

Row | Variant | self-cleavage
1 | G53A G55A | 0.923
2 | G53A G55C | 0.912
3 | G50C U65C | 1.05
4 | G50C U65G | 0.453
5 | G52C C63A | 1.05
6 | G52C C63U | 0.919
7 | G50C A56G | 0.734
8 | G50C A56U | 0.935
9 | G52U G80A | 0.528
10 | G52U G80C | 0.241
11 | G52C G55C | 1.03
12 | G53C C75G | 0.0627
13 | G53C C75A | 0.175
14 | A51C C64G | 1.09
15 | A51C C64U | 0.9
16 | G52A C85G | 1
17 | A51C A87C | 0.937
18 | G53U A56U | 0.956
19 | G53U A56G | 1.03
20 | G53C G68C | 0.372
21 | G50U G52C | 0.803
22 | G52A G68A | 0.788
23 | G53C G81C | 0.0665
24 | G52A U65A | 0.954

Row | Variant | self-cleavage
25 | A51C G76U | 1.11
26 | G54A C58A | 0.773
27 | G54A C58U | 1.22
28 | G52U G73A | 0.546
29 | A51U G67A | 0.78
30 | A51U G67U | 0.816
31 | A51U G52A | 1.15
32 | A51C C63G | 0.322
33 | A51C C63A | 0.475
34 | G53C C57A | 0.95
35 | G52U U72A | 0.496
36 | G52A G53A | 0.89
37 | G53C A77G | 0.88
38 | G54A A70U | 0.843
39 | G52C C84U | 0.537
40 | G53U G67C | 0.534
41 | G52A G74C | 0.133
42 | G52A G74U | 0.561
43 | G53A U79G | 0.554
44 | G53A A71G | 0.941
45 | A51G G55C | 0.481
46 | G50A C84U | 0.754
47 | A51C G67C | 0.886
48 | G52A C62G | 0.397

Row | Variant | self-cleavage
49 | G50C G55A | 0.959
50 | G50C G55U | 0.776
51 | G52C U79G | 0.475
52 | G50U G67U | 1.02
53 | G53A G54U | 0.962
54 | A51U A56G | 1.11
55 | G50A G68C | 0.631
56 | G50A G68A | 0.957
57 | G52A C64G | 0.935
58 | G53U A83U | 0.609
59 | G53U C86G | 1.12
60 | G50U G53A | 0.971
61 | G50U G53C | 0.437
62 | A51C G73A | 0.383
63 | G50U C63G | 0.332
64 | G50U C63U | 0.909
65 | G50C C84A | 0.743
66 | A51G A70G | 1.16
67 | A51G C57A | 0.877
68 | G52A G82U | 0.367
69 | G52A C84U | 0.691
70 | G52A C84G | 0.764
71 | G53U C61U | 0.994
72 | G53U C61G | 0.899

Row | Variant | self-cleavage
73 | G50U G76U | 1.04
74 | G52A G55A | 0.893
75 | A51G U72A | 0.665
76 | G52U C75G | 0.297
77 | G53U G68A | 0.903
78 | G52A U60A | 0.975
79 | G52A U60G | 0.897
80 | G52C G53A | 0.733
81 | G50U A83U | 0.683
82 | A51C C61G | 0.731
83 | G52C G73C | 0.339
84 | G53U G82C | 0.381
85 | G50C G53A | 0.665
86 | G50C G53U | 0.338
87 | G53A C57G | 0.992
88 | G50C C85U | 1.09
89 | G50C C85G | 0.831
90 | G53U C62A | 0.901
91 | G53C C64G | 0.268
92 | G53C A71C | 0.356
93 | G53C A71G | 1.07
94 | G53A A77U | 0.483
95 | A51U A78G | 0.532
96 | G53C G74A | 0.405

Row | Variant | self-cleavage
97 | G50C G73A | 0.407
98 | G50A G54U | 0.852
99 | G52C A87U | 1
100 | G50C G68U | 0.597
101 | G50C G68C | 0.249
102 | G50U G80C | 0.111
103 | G53C U60G | 1.01
104 | G50A C63U | 1.13
105 | A51U U69A | 0.95
106 | G52U A83G | 0.81
107 | G53A G80C | 0.351
108 | G54C A56G | 0.808
109 | G50U G74C | 0.214
110 | G50U G74A | 0.453
111 | G52U U65C | 0.658
112 | G54A A83G | 0.692
113 | G54A A83C | 0.277
114 | G54A A83U | 0.509
115 | A51U G80A | 0.344
116 | G53U A71U | 0.92
117 | A51G A87G | 1
118 | A51G A87C | 0.751
119 | G52A C58G | 0.974
120 | G52A C58U | 0.888

Row | Variant | self-cleavage
121 | G53U U60A | 0.997
122 | A51C C62G | 0.151
123 | G50A U72A | 0.677
124 | G50C G76U | 1.04
125 | G52A G76A | 1.05
126 | G52A G76C | 1.24
127 | A51C C75A | 0.0449
128 | G50U G82U | 0.633
129 | G52A A56C | 1.11
130 | G54C A87C | 1.02
131 | G54A C57G | 0.903
132 | A51C U60C | 1.15
133 | A51U U60A | 1.14
134 | G52U C84U | 0.71
135 | A51G G80A | 0.376
136 | G52A C61A | 1.19
137 | A51C A70G | 0.849
138 | A51C A70U | 1.15
139 | G53C G55C | 1.05
140 | G50A C66U | 0.989
141 | G50A C66G | 1.05
142 | A51U U72G | 0.534
143 | G53A U65G | 0.708
144 | G52C A83C | 0.475

Row | Variant | self-cleavage
145 | G52A U69A | 1.05
146 | A51G G52A | 1
147 | G50U A71U | 1.02
148 | G53U C85G | 0.818
149 | A51U A71G | 0.91
150 | G50C A78G | 0.584
151 | G50C A78C | 0.188
152 | G52U G82U | 0.382
153 | G52U A71G | 0.901
154 | G53U A78U | 0.251
155 | G52C U65G | 1.04
156 | G53A U60C | 0.935
157 | G53U C64A | 0.777
158 | A51G C84A | 0.698
159 | A51U C85U | 0.916
160 | A51U C85G | 0.831
161 | A51C A56G | 0.831
162 | G53A C63U | 0.812
163 | G53C C85G | 1.01
164 | G53C C85A | 0.955
165 | G50U C64G | 0.703
166 | G53A A56U | 0.873
167 | G53U C84G | 0.554
